Test results from publication PMC7376557.

Target: SasC aggregation domain (S. aureus surface protein C), His-tagged (S. aureus strain N315)
Experiment: SEC-MALS; FPLC-MALS (Wyatt Technology) of the purified His-tagged SasC aggregation domain; superpolymer of about 1,610 kDa against 41.5 kDa for the domain

## SasC aggregation domain (S. aureus surface protein C), His-tagged (domain or fragment)
  stoichiometry N: > 35
